# T1: IdeR (iron-dependent regulator) (Mycobacterium tuberculosis, UniProt P9WMH1 1-230)
# T1 sequence: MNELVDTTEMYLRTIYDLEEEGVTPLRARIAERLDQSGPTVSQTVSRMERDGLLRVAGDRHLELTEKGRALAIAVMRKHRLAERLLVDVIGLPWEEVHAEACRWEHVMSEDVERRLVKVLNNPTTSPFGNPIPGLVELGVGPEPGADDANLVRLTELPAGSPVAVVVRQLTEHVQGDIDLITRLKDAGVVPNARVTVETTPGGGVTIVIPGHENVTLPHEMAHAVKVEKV
# B1: DIP2161 motif (sidA) (dsDNA)
# DNA 1: TTAGGGTAGGCTAATCCAA
# DNA 2: TTGGATTAGCCTACCCTAA
# B2: DIP0699 motif (secA) (dsDNA)
# DNA 1: TTGTGTTAGCCTAGGCTAA
# DNA 2: TTAGCCTAGGCTAACACAA
# B3: DIP0586 motif (iucA) (dsDNA)
# DNA 1: TTAGGGTAGCTTCGCCTAA
# DNA 2: TTAGGCGAAGCTACCCTAA
# B4: DIP2304 motif (FpG) (dsDNA)
# DNA 1: TTGGGGTGGCCTATCCTTA
# DNA 2: TAAGGATAGGCCACCCCAA
# B5: DIP2272 motif (sortase) (dsDNA)
# DNA 1: TGTGGGCACACCAACCTAA
# DNA 2: TTAGGTTGGTGTGCCCACA
# B6: negative control motif (dsDNA)
# DNA 1: TTTTCATGACGTCTTCTAA
# DNA 2: TTAGAAGACGTCATGAAAA
# Molecular target: T1, IdeR (iron-dependent regulator)
# Test: EMSA; 200 uM Mn2+; 30 pmol IdeR
# Conditions: protein: recombinant; tags: 6xHis (pRSET vector); chain copies: 4; label: 32P end label; blunt
row,Binder,binding result
1,B1,binds
2,B2,binds
3,B3,binds
4,B4,binds
5,B5,binds
6,B6,no binding
